Reference: the nanobody polyreactivity screen of Harvey et al. (2022)

Assay: yeast display, Sf9 membrane polyspecificity reagent, FACS + sequencing; frameworks hold sequencing errors
Method in brief: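 In a synthetic yeast display library (Saccharomyces cerevisiae BJ5465), nanobody expression was induced with galactose for 36–48 hours. FACS gates were set low and high (top ~1%) using anti-HA fluorescence for expression and streptavidin fluorescence for binding of the Sf9 membrane reagent. Each polyreactivity label is drawn from the gate of origin.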

Row | Sequence | polyreactivity (PSR sort gate)
1 | QVQLVESGAGLVQAGGTLRLSCAASGRTRQYNDMGWYRQAPGKERELVAAMTWSGGLTYYADSVKGRFTISRDNAKNTVYLKMNCLKPEDTAVYYCAVDGGTPGALRRFNYWGQGTQVTVSS | high polyreactivity
2 | QVQLVESGGGLVQAGGSLRLSCAASGSTFKAYAMGWYRQAPGKERELVAAITRRGTSTYYADSVKGRFTISRDNAKNTDYFQMNRLKPEDTAVFYCNAKYVSDRSSAVSFDYWVQGTQVTVSS | low polyreactivity
3 | QVQLVESGGGLVQAGGSLRLSCAASGRIFQRYAMGWYRQAPGKERELVAAISKNGGRTYYADSVKGRFTISRDNAKNTVYLQMNSLKPEDTAVYYCNKGTAGYEYAAFDYWGQGTQVTVSS | low polyreactivity
4 | QVQLVESGGGLVQAGGSLRLSCAASGSTFWANAMGWYRPAPGKERELVAAISRNGGSTYYADSVKGRFTISRDNAKNTVYLQMNSLKPEDTAVYYCAAKKYYYRRQLDYWGQGTQVTVSS | high polyreactivity
5 | QVQLVESGGGLVQAGGSHRLSCAASGGTFRSNAMGWYRQAPGKERELVAAITSNGGRTYYADSVKGRFTISRDNAKNTVYLQMNSLKPEDTAVYYCAALGGYRRPLYGYDYWGQGTQVTVSS | high polyreactivity
6 | QVQLVESGGGLVQAGGSLRLSCAASGSIIDLNAMGWYRKAHGKERELVAAISSGGITYYADSVKGRFTISRDNAKNTVYLHMNSLKPEDTAVYYCAARYNHYFSLYDYWGQGTQVTVSS | high polyreactivity
7 | QVHLVESGGRLVQAGGSLRLSSAASGSIFVKNAMGWYRQAPGKERELVATISSGGSTYYADSVKGRFTISRDNAKNTVYLQMNSLKPEDTAVYYSNTASYVSWYVHYYYWGVGTQVTVSS | low polyreactivity
8 | QVQLVESGGGLVQAGGSLRLSCAASGFTFGGYAMGWYRQAPGKERELVAAITRSGGRTYYADSVKGRFTISRDNAKNTVYLQMNSLKPEDTAVYYCNAYVIRALGYGGYDYWGQGTQVTVSS | high polyreactivity
9 | QVQLVESGGGLVQAGGSLRLSCAASGSIFYSYAMGWYRQAPGKDRELVARITSSTGRTYYADSVKGRFTISRDNAKNTVYLQMNSLKPEDTAVYYCAARSASRSMDYWGQGTQVTVSS | high polyreactivity
10 | QVHLVESGGGLVQAGGSLRLSCAASGSILLRYAMGWYRQAPGKERELVAAIRTIGASTYYADSVKGRFTISRDNAKNTVYLQMNSLKPEDTAVYYCNAYLAEVLPLGKGRLYDYWGLGTQVTVSS | low polyreactivity
11 | QVQLVESGGGLVQAGGSLSLSCAASGSNFVYYAMGWSRQAPGKERELVAAINFRGGNTYYADSVKGRFTISRDNAKNTVYLQMNSLKPEDTAVYYCAADYRWKWIGGARYDYWGQGTQVTVSS | low polyreactivity
12 | QVQLVESGGGLVQAGGSLRLSCAASGRIFSMNAMGWYRQAPGKERELVAGIRKRGGSTYYADSVKGRFTISRDNAKNTVYLQMNSLKPEDTAVYFCAAQPALTYRFYYLGQGTQVTVSS | high polyreactivity
13 | QDQLVESGGGLVQAGGSLRLSCAASGSTIWGNAMGWYRQAPGKERELVAAITSTGSTNYADSVKARFTISRDNAKNTVYLQMNSLKPEVTAVYYCATAYYHTYWPTRRYYYWGQGTQVTVSS | high polyreactivity
14 | QVQLVESGGGLVQAGGSLRLSCAASGIIFLRNTMGWNRQAPGKERELVASISRRGGSTYYADSVKGRFTISRDNAKNTVYFQLNSLNPEDTAVYYCAATVRGKRSTYDYWGQGTQVTVSS | high polyreactivity
15 | QVQLVESGGGLVQAGGSLRLSSAASGSTFYWYAMGWYRQAPGKERELVASITRSGVRTYYADSVKGRFTISRDNAKNTVYLQMNSLKPEDTAVYYCAAERYYFPRSYRYGYWGQGTQVTVSS | low polyreactivity
16 | QVQLVESGGGLVQAGGSLRLSGAASGYIFLGNAMGWYRQAPGKERELVAAISRSGGSTYYADSVKGRFTISRDNAKNTVYFHMNSLKPEYTAVYYCAADLPNPKWYGYDYWGQGTQVNVSS | high polyreactivity
17 | QVQLVESGGGLVKAGGSLRLSCAASGSISSGYVMGWYRQAPGKERELVASISYSGTSTYYADSVKGRFTISRDNAKNTVYLQMNSLKPEDTAVYYCAALSRRRFGYWGQGTQVTVSS | high polyreactivity
18 | QVQLVESGGGLVQAGGSLRFSCAASGLTFSWNAMGWDRQAPGQERELVAAITSSGTSTYYADSVKGRFSISRDNAKITVYLQMHSLKPEDTAVYYGAAEGDYWGWEDDYWGQGTQVTVSS | high polyreactivity
19 | QVQLVESGGGLVQAGGSLRLSCAASGSIFNKYAMGWYRQAPGKERELVATISFRGGSTYADSVKGRFTISRDNAKNTVYLQMNSLKPEDTAVYYCATKSGRNSPRMDYWGQGTQVTVSS | high polyreactivity
20 | QVQLVESGGGLVQAGGSLRLSCAASGITFQHYSMGWYRQAPGKERELVAAISSSGGRTYYADSVKGRFTISRDNAKNTVYLQMNSLKPEDTAVYYCNGVDRYNRFDSWGQGTQVTVSS | high polyreactivity
21 | QVQLGESGGGLVQAGGILRLSCAASGSIFARYAMGWYRQPPGKERELVAAISSNSASTYYADSVKGRFTISRDNAKNTVYLQMNCLIPEDTAVYYCATAYRSYWLNDYWGQGTQVTVSS | low polyreactivity
22 | QVQLVESGGGLVQAGGSLRLSCAASGTTFRLYAMGWSIQAPGKERELVAAISRSGRTNYADSVKGSFTISRDNAKNTVYLQLNSLKPEDTAVYYCATVPGKCGDYWGQGTQVTVSS | high polyreactivity

Row | Sequence | polyreactivity (PSR sort gate)
23 | QFQLVESGGGLVQAGGSLRLSCAASGRTFTSNAMGWYRQAPGKERELVAAIDDGGSTNYADSVKGRFTISRDNAKNTVYLQMNSLKPEDTAVYYCATGYWELRYDYWGQGTQVTVSS | low polyreactivity
24 | QVQLVESGGGLVQAGGSLRLSCAASGIIFGYYAMGWSRKAPGKERELVAAISRGGNTNYADSVKGRFTISRDNAKNTVYLQMNSLKPEDTAVYYCAADFWSRIIYFYAVDVDYWGQGTQVTVSS | low polyreactivity
25 | QVQLVESGGGLVQAGGSLRLSCAASGFIFGPNAMGWYIQAPGKERELVAAITWSSGRTYYADSVKGRFTISRDNAKNTVYLQMNSLKPEDTAVYYCAADFSRAVLRGNYWGQGTQVTVSS | high polyreactivity
26 | QVQLVESGGGLVQAGGSLRLSCAASGFTFPRNVMGWYRQAPGKERELVAAISRSGSRTSYADSVKGRFTISRDNAKNTVYLQMNSVKPEDTAVYYCATSSGVGGYAAYYYWGQGTQVTVSS | high polyreactivity
27 | QVQLVESGGGLVQAGGSLRLSCAASGRIFYLYAMGWYRQAPGKERELVAGITSGGRTNYADSVKGRFTISRDNAKNTVYLQMNSLKPEDTAVYYCAAFYWGRYTGYYWGQGTQVTVSS | high polyreactivity
28 | QVQLVESGGGLVQAGGSLPLSCAASGFTFDKYAMGWYRQAPGKERELVAAISNSGGRTYYADSVKGRFTISRDNAKKTVYLQMNSLKPEDTAVYYCAAKFRYQYVRVAREYYYWGQGTQVTVSS | high polyreactivity
29 | QVQLVESGGGLVQAGGSLRLSCAASGRIFPYYAMGWYRQAPGKERELVAAITTRGGSTYYADSVKGRFTISRDNAKNTVYLQMNSLKPEDTAVYYCAAVTFGRMEYWGQGTQVTVSS | low polyreactivity
30 | QDQLVESGGGLVQAGGSLRLSCAASGFTFNWKDMGWYRQAPGKERELVAAISGGASTYYADSVKGRFTISRDNAKNTVYLQMNSLKPEDTAVYYCAADLDEWGYLFDYWGQGTQVTVSS | low polyreactivity
31 | QVQLVESGGGLVQAGGSLRLSCAASGFIFQYYGMGWYRQAPGQVRELVAAIDSRGGSTYYADSVKGRFTISRDNAKNTVSLQMNSLKPADTAVYYCAAMGLYQGTLNHFYYWGQGTQVTVAS | low polyreactivity
32 | QVQLVESGGGLVQAGGSLRLSCAASGNTFDYYAMGWYRQAPGKERELVAAITRGGSTNYADSVKGRFTISRDNAKNTVSLQMNSLKPEDTAVYYCAAEQRAPRFADYDYWGQGTQVTVSS | low polyreactivity
33 | QVQLVESGGGLVQAGGSLRLSCAASGSIFYEYAMGWYRQAPGKERELVAAINWDGGTYYADSVKGRFTISRDNAKNTVYLQMNSLKPEDTAVYYCAKPYDWGVYSQSDSDYWGQGTQVTVSS | low polyreactivity
34 | QVQLLESGGGVVQAGGSLRLSCASSGFTFRINAMGWYRPAPGKERELVAANSGRGGSTYYADSVKGRFTISRDYAKNTVYLQMNSLKPEDTAVYYCAAKGSSSLSYYYWGQGTQVTVSS | high polyreactivity
35 | QVQLVESVGGLVQAGGSLRLSCAASGRIFPTYAMGSSRQAPGKERELVAAISRSGGRTYYADSVKGRFTSSRDNAKNTVYLQMNSLKPEDTAVYYCNAEGDPYVDFPSRSTGYDYWGQGTQVTVSS | high polyreactivity
36 | QVQLVESGGGLVQAGGSLRLSCAASGSTFTRYVMGWYRQAPGKERELVAAISKRGGSTYYADSVKGRFTISRDNAKNTVYLQMNSLKPEDTAVYYCNRVSRAPFDYWGQGTQVTVSS | high polyreactivity
37 | QVQLVESGGGLVQAGGSLRLSCAASGRTFYFYAMGWYRQAPGKERELVAAITSRVGRTYYADSVKGRFTISRDNAKNTVYLQMNSLKPEDTAVYYCAAEGVYRMGYWGQGTQVTVSS | high polyreactivity
38 | QVQLVESGGGLVQAGGSLRLSCAASGSIFSNYAMGWYRQAPGKERELVAAITLSSGGTYYADSVKGRFTISRDNAKNTVYLQMNSLKPEDTAVYYCAAQYKYFIHRYYYWGQGTQVTVSS | high polyreactivity
39 | QVQLVESGGGLVQAGGSLRLSCAASGRIIGLYTMGWYRQAPGKERELVAAINIRGTRTYYADSVKGRFTISRDNAKNTVYLQMNSLKPEDTSVYYCARSPVVVGSFLSYDYWGQGTQVTVSS | high polyreactivity
40 | QVQLVESGGGLVQAGGSLRLSFAASGRTFDRYDMGWYRQAPGKERELVATISSSGGSTYYADSVKGRFTISRDNAKNTVYLQMNSLKPEDTAVYYCAADPSGDYWGQGTQVTVSS | low polyreactivity
41 | QVQLVESGGGLVQAGGSLRLSCAASGITFQYYAMGWYRQAPGKERELVAAITSSGVSTYYADSVKGRFTISRDNAKNTVYLQMNSLKPEDTAVYYCNTVVRGWSSSAYDYWGQGTQVTVSS | low polyreactivity
42 | QVQLVESGGGLVQAGGSLRLSCAASGRTFKSYALGWYRQAPGKERELVATITRDGRTNYADSVKGRFTISRDNAKNTVYLQMNSLKPEDTAVYYCNADSRYRYDYWGQGTQVTVSS | low polyreactivity
43 | QVQLVESGGGLVQAGGSLRLSCAASGFTFDWNAMGWYRQAPGKERELVAAISNSDGSTYYADSVKGRFTISRDNAKNTVYLQMNSLKPEDTAVYYCNKLYRGGWYAYWGQGTQVTVSS | low polyreactivity
